Results from patent US20240026407A1, “MODIFICATION OF SAPONINS” (GLAXOSMITHKLINE BIOLOGICALS SA, priority 2020, published 2024).

How the values were obtained:
Format in all cases: biochemical, Quillaja saponaria
[1] = Experiment 5-1: screening of additional glucosidases for deglycosylation with purified QS-18 (0.04 mg/ml) at pH 7.5 and 30 deg C; conditions: pH 7.5, 30 degrees C, 18 hours, LCMS/MS
Protocol: The 94 additional genes, together with positive control (DNA encoding SEQ ID No. 262) and negative control, were transformed, expressed, lysed and reacted in the same manner as described above for Experiment 4-1, except the reaction was incubated at 30 degrees C. for 18 hours.
Samples were analysed by LCMS/MS according to the procedure in Experiment 4-1.

[2] = Experiment 4-4: screening of glucosidases for deglycosylation of QS-18 in crude bark extract (1 in 20 dilution) to QS-21; conditions: CBE 1 in 20 dilution, pH 6, 25 degC, 18 hours; % conversion of Middle Peak by UV HPLC
How it was run: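 Clarified glucosidase lysates were incubated with pH 6 crude bark extract (1 in 20) in potassium phosphate buffer pH 6 for 18 h at 25 °C with shaking, then quenched with MeCN. UV HPLC with MS/MS-supported peak identity; activity is % conversion of the extract's Middle Peak (QS-18 family) toward the QS-21 peak.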

[3] = Experiment 5-2: screening of additional glucosidases for deglycosylation with QS-18 in crude bark extract (80%) at pH 6 and 35 deg C; conditions: CBE 80%, pH 6, 35 deg C, 18 hours; UV HPLC
How it was run: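 Deglycosylation of QS-18 was monitored by UV HPLC after MeCN/AcOH quench with hexanophenone. The reaction ran 18 hours at 35 deg C, shaking, combining clarified pH 6 lysate with crude bark extract neutralised to pH 6 by NaOH.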

[4] = Experiment 5-3: screening of additional glucosidases for deglycosylation with QS-18 in treated bark extract (80%) at pH 6 and 35 deg C; conditions: TBE 80% (QS-21 approx. 4 g/L), pH 6, 35 deg C; UV HPLC
Protocol: Experiment 5-1 was repeated, replacing CBE with Treated Bark Extract (TBE) at pH 6. TBE was prepared from CBE by PVPP treatment and concentration, to provide TBE with a QS-21 concentration of approximately 4 g/L. TBE was adjusted to pH 6 by dropwise addition of 2M NaOH with stirring.

[5] = Experiment 4-2: screening of glucosidases for deglycosylation with purified QS-18 (1 mg/ml) at pH 6 and 30 deg C; conditions: pH 6, 30 degC, 18 hrs, clarified lysate, LCMS/MS
How it was run: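 Enzyme activity derived from LC-MS/MS analysis after MeCN quench. Substrate QS-18 (1 mg/ml final) was exposed overnight (18 h, 30 °C, pH 6 phosphate buffer) to clarified lysates containing candidate glucosidases.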

[6] = Experiment 4-3: screening of glucosidases for deglycosylation with QS-18 in crude bark extract (1 in 2000 dilution) at pH 7 and 30 deg C; conditions: CBE 1 in 2000 dilution, pH 7, 30 degC, 1 h; % conversion of QS-18 by LCMS/MS
[7] = Experiment 4-1: screening of glucosidases for deglycosylation with purified QS-18 (0.04 mg/ml) at pH 7.5 and room temperature; conditions: pH 7.5, room temperature, 20 h, clarified E. coli lysate, QS-18 2150 to QS-21 1988 by LCMS/MS
How it was run: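 Deglycosylation measured by LC-MS/MS as % conversion after 20 h room-temperature incubation of QS-18 phenyl fraction (0.04 mg/ml final) with polymyxin B/lysozyme lysates, pH 7.5 phosphate, of E. coli BL21(DE3) expressing each enzyme; MeCN quench. Positives exceeded negative control by >3 S.D.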

B1: 262 (protein, listed as Modestobacter marinus)
chain: MNPASSTRTDTMTDTTARTDSRLTDALAALSLEQKVQLLTGRDFWNTWPIEEIGLRRILVSDGPSGVRGEVWDERDPSLNLPSATALASAWDPDIARRYGAAAAVEARRKGVDVVLGPTINLHRSPLGGRHFEAFSEDPVLTAELAAAYVTGVQDNGVGATPKHYVANDFETDRFTVDVRADERTLRELYLLAFEKAVTEARAWLVMSAYNGINGATATENDLLETPLNSEWGFDGVVVSDWTAVRSLESARSSQDLVMPGPVGPWGDALVEAVRTGAIDESVVDRKVLRILTLAQRVGALEGSPAIDPVWVEDGVALAREAAVEGTVLLENRDELPWDATSLRKVAVIGNNAAAARTQGGGSATVLPEYTVSPLDGVRAALPDAEVSYSLGAVVQDGLVELPLAELTNPVTGGPGLRARFLTADGAELFGEDRRKSVLVYFGGDAPIAAAATYELTARWTPTESQTVRLGFALIGAAQLYVDGELLVESDLQPSGTDLGAAFMNPLTASAEVELVAGKPVDVRLVHDLSAKEGFAAHALFLQLGTEPAEVDEDALIAEAAEAAEAADVVLVVVGTNSIVESEGYDRESLSLPGRQDDLVRAVVAANPRTVVLVNAGAPVLLPWRDDVAALLLGWFGGQEFGNAVADVLLGVAEPGGRLPTTWPAAEADVPVLSCTPVDGVVEYTEGIHIGYRAWLRSGATPAYWFGSGQGYTCVELTGVEAPSRARPGEIVTVSVEVANRGERDGKQVVQVYAEKPDSTVDRPVRWLVGSAPVRVPAGQTAQVEVAVPTRYLAHWAGGWQYEPGVYRLRVGTTAVELPLETTLEVSA
[1]
  Experiment 5-1 % conv: 98.7%
[2]
  Expt 4-4 % conv: 68.6%
[3]
  Experiment 5-2 % conv: 5.5%
[4]
  Experiment 5-3 % conv: 8.5%
[5]
  Expt 4-2 % conv: 97.9%
[6]
  Expt 4-3 % conv: 99.7%
[7]
  Expt 4-1 % conv: 99.5%
